Measurements: US20090042235A1, “PHOTOREGULATED PEPTIDE, AND METHOD FOR REGULATION OF PEPTIDE-PROTEIN COMPLEX FORMATION USING THE PHOTOREGULATED PEPTIDE” (priority 2005, published 2009)
Bridge positions count the residues as written; N and C are the ends. Ends that are not written are not given here. DBMNB = photocleavable intramolecular cysteine cross-linker

Target: T1, PI3-Kα SH3 domain (Homo sapiens, UniProt P27986)
T1 construct: As a functional protein, an SH3 domain protein of PI3-Kα was used
T1 sequence (P27986 3-79 limits assumed): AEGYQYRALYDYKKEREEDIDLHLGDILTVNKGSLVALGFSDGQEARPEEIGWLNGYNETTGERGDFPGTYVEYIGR
Test: Circular dichroism (CD) differential spectra of peptide / PI3-Kα SH3 domain mixtures: photoregulation of peptide-protein complex formation
Type: binding
Method: As a functional protein, an SH3 domain protein of PI3-Kα was used. The PI3-Kα SH3 domain interacts with RLP1. The peptide having an intramolecular cross-linkage obtained in the manner as described above and the PI3-Kα SH3 domain were mixed in 10 mM phosphate buffer solution (pH 7.0), to obtain Mixture solution (I) in which the concentration of the peptide having an intramolecular cross-linkage was 100 microM and that of the PI3-Kα SH3 domain was 20 microM.
Then, Mixture solution (I) was irradiated with UV light. Irradiation was performed by using Minilite II manufactured by Continuum as a UV irradiator, with pulsed light at wavelength of 355 nm (third harmonic of Nd-YAG laser, pulse width 5 ns, 10 Hz, pulse intensity 4 mJ/cm^2) at 4° C. for 30 minutes. By UV irradiation, either one of the bonds between cysteine and DBMNB in the peptide having an intramolecular cross-linkage was cleaved. This was named Mixture solution (II).
Used sample solutions are shown below.
(i) Mixture solution (I) (ii) Mixture solution (II) (iii) Uncross-linked peptide RLP1 100 microM (10 mM phosphate buffer solution, pH 7.0) (iv) Peptide having an intramolecular cross-linkage (not irradiated with UV light) 100 microM (10 mM phosphate buffer solution, pH 7.0) (v) PI3-Kα SH3 domain 20 microM (10 mM phosphate buffer solution, pH 7.0) (vi) Mixture solution prepared by mixing an uncross-linked peptide RLP1 and a PI3-Kα SH3 domain in 10 mM phosphate buffer solution (pH 7.0), so that the concentration of the uncross-linked peptide is 100 microM and that of the PI3-Kα SH3 domain is 20 microM.
The horizontal axis of the graph represents wavelength of circularly polarized light (Wavelength/nm), and the vertical axis represents intensity of circular dichroism (Δθ/mdeg). In the graph of FIG. 7, “dark” represents different-al spectrum obtained by subtracting CD spectrum (iv) of the peptide having an intramolecular cross-linkage and CD spectrum (v) of the PI3-Kα SH3 domain from CD spectrum (i) of Mixture solution (I). Further, “light” represents differential spectrum obtained by subtracting CD spectrum (i) of Mixture solution (I) from CD spectrum (ii) of Mixture solution (II).

Substance: RKLPPRSK [RLP1, reference compound]
- differential CD spectrum of mixture with PI3-Kα SH3 domain minus peptide and SH3 domain spectra (peak ascribable to formation of complex) (uncross-linked peptide 100 microM, SH3 domain 20 microM, 10 mM phosphate buffer pH 7.0, no irradiation): positive peak was observed around 220 nm

Substance: peptide having an intramolecular cross-linkage: RLP1-2C (Cys Arg Lys Leu Pro Pro Arg Ser Lys Cys) intramolecularly cross-linked between its cysteines via photocleavable DBMNB, cyclic (CRKLPPRSKC; linker 1-10 via DBMNB)
- interaction with specific recognizing site of the PI3-Kα SH3 domain (differential CD spectrum "dark") (Mixture solution (I), not irradiated, peptide 100 microM, SH3 domain 20 microM, 10 mM phosphate buffer pH 7.0, room temperature): no interaction
- differential CD spectrum "light" (Mixture solution (II) minus Mixture solution (I)) (after UV irradiation 355 nm pulsed light, 4° C., 30 minutes, peptide 100 microM, SH3 domain 20 microM, pH 7.0): positive peak was observed around 220 nm
- complex formation with PI3-Kα SH3 domain (after UV irradiation (cyclic structure dissociated)): forms a complex
